Test results taken from US20240279344A1 (CDR LIFE, published 2024).

B1: M0736 (VHH)
VHH: EVQLVESGGGLVQAGGSLRLSCTVSGRTSSAFAMGWFRQAPGKEREFVAAINLTGGTTNYAESVKGRFTISRDNAKNTGYLGMSSLKPEDTAVYYCAGRNRWSEGREVAPSSYYYWGQGTQVTVSS
notes: Llama-derived VHH
B2: M0866 scFv (scFv)
scFv: QSVKESGGRLVTPGTPLTLTCTASGFTISSSAISWVRQAPGKGLEYIGIIRSGGTTDYASWAKGRFAISKTSTTVDLKITSPTTEDTATYFCARDPPYITSTYFDLWGQGTLVTVSSGGGGSGGGGSGGGGSGGGGASELVLTQPQSVSGSLGQTVSISCKRARDSVESYDVHWYQQHPGKTPTIVIYKDDQRPSGVPDRFSGSIDSTSNSASLTITGLLAEDEADYFCQSFDGDAVVFGGGTQLTVTG
notes: Rabbit scFv identified by phage display
B3: M0751 (VHH)
VHH: EVQLVESGGGLVQPGGSLRLSCAASGFSFRLYTMSWVRQAPGKGLEWVSSISSGGGVVTTYADSAKGRFTISRDNDKNTLTLQMNSLKPEDTAVYYCAQGERRGQGTQVTVSS
notes: Llama-derived VHH
B4: M0748 (VHH)
VHH: EVQLVESGGGAVQAGGSLRLSCTVSGRPFTKYAWGWFRQPPEKEREFVATSTWDVGSTYYADSAKGRFTISRDNANNIIDLQMNSLKPEDTAVYYCAASNTYSSDITYYAKPMAFNFWGQGTQVTVSS
notes: Llama-derived VHH
B5: M0865 scFv (scFv)
scFv: PAALMESGGRLVTPGTPLTLTCTVSGIDLSTFAMTWVRQAPGKGLEWLGIINTGGSAYYTSWAKGRFTISRTSTTVDLKITSPTTEDTATYFCARGDWSSATDLWGQGTLVTISSGGGGSGGGGSGGGGSGGGGASDPDMTQTPSSVSAAVGGTVTINCQASQSVYDNKVLAWYRQKPGQPPKLLIYKASTLASGVPSRFKGRGSGTQFTLTISGVQADDAATYYCLGEFSCSSADCHAFGGGTELEIL
notes: as for B2
B6: M0734 (VHH)
VHH: EVQLVESGGGLVQAGGSLRVSCAASGLTFSNYAMGWFQQAPGKEREFVAGISWSGVSTYYADFVKGRFTISRDNAKNTVYLQMNSLKPEDTAVYYCAADNRRYSRGTSISTWRSDYDYWGQGTQVTVSS
notes: Llama-derived VHH
B7: M0749 (VHH)
VHH: EVQLVESGGGSVQPGGSLRLSCAASGFTFSRSTMSWVRQAPGKEIEWVSSVSGSGGVTTYADSVKGRFTISRDNAKNTLYLQMSSLKPEDTAVYYCGNSNARGQGTQVTVSS
notes: Llama-derived VHH
B8: M0864 scFv (scFv)
scFv: QSVKESGGGLVTPGTPLTLTCTVSGFSLSTYAISWVRQAPGKGLEWIGFIDTVDSAYYASWAKGRFTISKTSSTTVDLKMTSPTTEDTATYFCAKLRYGDYGDYTLWGQGTLVTVSSGGGGSGGGGSGGGGSGGGGASELVMTQTPSPVSGAVGGTVTIKCQASQNIYSYLAWYQQKPGQPPKLLIYKASTLASGVPSRVKGSGSGTEYTLTISGVQAADAATYYCQCTYYDSNTFGGGTEVVVK
notes: as for B2
B9: M0705 (Fab, V domains shown)
VH: QQQLVESGGRLVTPGTPLTLTCTASGIDLNSNAMSWVRQGPGKGLEWIGDIWSGGYTDYASWAKGRFTISKTSTTVDLKMTSLTAADTATYFCARDRLAGDGVVDYDLWGQGTLVTVSS
VL: ELDMTQTPASVEVAVGGTVTIKCQASQNIYSNLAWYQQKPGQRPKLLIYGASTLASGVPSRFKGSGSGTEYTLTINGVQAADAATYYCQQGFSSSNVDNVFGGGTEVVVKR
B10: M0740 (VHH)
VHH: EVQLVESGGGLVQPGGSLRLSCLASGFPFSMYTMNWVRQAPGKGLEWVSAISSGGAVTTYADSVKGRFTISRDNAKNTLYLQMSSLKPEDTAVYYCESSNNRGQGTQVTVSS
notes: Llama-derived VHH
B11: M0750 (VHH)
VHH: MEVQLVESGGGLVQPGGSLRLSCAASGFTFSRYTMSWVRQAPGEGLEWVSSIGSGGGPTTYANSVKGRFTVSRDNAKNTLWLQMNNLKPEDTALYYCQGGGNRGQGAQVTVSS
notes: Llama-derived VHH
B12: M0738 (VHH)
VHH: EVQLVESGGGLVEAGVSLRLSCAASGRTSENFAMGWFRQAPGNEREFVAAITRNHRTFYKESVKDRFTISRDDAKNTVYLEMNNLVPDDTAVYTCAAKFDPYASASSYYTGYYYWGQGTQVTVSS
notes: Llama-derived VHH
B13: M0707 (Fab, V domains shown)
VH: QQQLEESGGGLVTPGTPLTLTCTVSGIDLSSYAMGWVRQAPGKGLEWIGTINDGGSAFYASWVKGRFTISRTSTTVDLKITSPTAEDTATYFCAKTYGTNGDVYWGYFNLWGQGTLVTVSS
VL: ELVMTQTPASVSEPVGGTVTIKCQASQSIGSNLAWYQQKPGQPPKLLIYYESILASGVPSRFSGSGSGTEYTLTISGAQADDAATYYCQQGYSSSNILNAFGGGTEVVVKR
B14: M0762 (Fab, V domains shown)
VH: QSVKESGGRLVTPGTPLTLTCTASGFTISSSAISWVRQAPGKGLEYIGIIRSGGTTDYASWAKGRFAISKTSTTVDLKITSPTTEDTATYFCARDPPYITSTYFDLWGQGTLVTVSS
VL: SELVLTQPQSVSGSLGQTVSISCKRARDSVESYDVHWYQQHPGKTPTIVIYKDDQRPSGVPDRFSGSIDSTSNSASLTITGLLAEDEADYFCQSFDGDAVVFGGGTQLTVTG
B15: M0708 (Fab, V domains shown)
VH: QSVEESGGRLVTPGTPLTLTCTVSGFSLSNYAMSWVRQAPGKGLEYIGIVSSGGTTYYASWAKGRFTISKTSTTVDLKITSPTTEDTATYFCAKDLYYGPTTYSAFNLWGQGTLVTVSS
VL: SELVLTQPQSVSGSLGQTVSISCKRARNNIEDYYVHWYQQHPGRSPTIVIHKDDQRPSGVPDRFSGSIDSTSNSASLTITGLLAEDEADYFCQSFDNNANPVFGGGTQLTVTG
B16: M0710 (Fab, V domains shown)
VH: QSVKESGGRLVTPGTPLTLTCTVSGFSLSNYAMSWVRQAPGKGLEYIGIVSSGGTTYYASWAKGRFTISKTSTTVDLKITSPTTEDTATYFCAKDLYYGPTTYSAFNLWGQGTLVTVSS
VL: SELVLTQPQSVSGSLGQTVSISCKRARDNIEDYYVHWYQQYPGKTPTIVIYKDDQRPSGVPDRFSGSIDSTSNSASLTITGLLAEDEADYFCQSFDNNANVVFGGGTQLTVTG
B17: M0737 (VHH)
VHH: EVQLVESGGGLVQRGDSRRLSCAASGRPFSSFAMGWFRQAPGKEREFVAGISRSAGNTDYSDSVKGRFTISRDNAKNTVYLELNNLTPEDTAVYYCAAQIAIGTGSVFQSNTQYMYWGQGIQVTVSS
notes: Llama-derived VHH
B18: M0735 (VHH)
VHH: EVQLVESGGGLVQAGGSLRLSCAASGLTFRRYTMGWFRQAPGKEREFVAAIVSSDSTNYADSVKGRFTISRDNAKNTVYLEMNSLKPDDTCVYYCAARNSLSLYVSNLGSRYDYWGQGTQVTVSS
notes: Llama-derived VHH
B19: M0702 (Fab, V domains shown)
VH: QEQLEESGGGLVTPGTPLTLTCTASGFSLSSYAMIWVRQAPGKGLEWIGTINDGGTAFYANWVKGRFTISRTSTTVDLKMTSPTTEDTATYFCARAYGSNGDVYWGYVNLWGQGTLVTVSS
VL: ELVMTQTPASVSEPVGGTVTIKCQASQSIGSNLAWYQQKPGQPPKLLIYAAANLASGVSSRFKGSRSGTEYTLTISGVQAADAATYYCQQGYSSSNVANVFGGGTELEILR
B20: M0766 (Fab, V domains shown)
VH: PEQLEESGGGLVTPGGVLTLTCTASGFSFSSYGVNWVRQAPGKGLEWIGFIFGDGTTYYANWAKGRFTISKTSTTVDLKMTSPTTEDTATYFCARDGYGGYDYIINLWGQGTLVTVSS
VL: AQVLTQTPASVSAAVGGTVSISCQSSQSVVNNNWLAWYQQKPGQPPKLLIYKASTLESGVPSRFKGSGSGTQFTLTISGVQADDAATYYCLGEFSCSSADCHAFGGGTELEILR
B21: M0746 (VHH)
VHH: EVQLVESGGGLVQAGGSLRLSCAASGRTFSNNAMGWFRQGPDQEREFVAAISRSGGGSGGAPLYADSVKGRFTISRDNAKNTMSLSMNSLSPEDTAVYYCAARSLYKVAGSDDLSDYAYWGQGTQVTVSS
notes: Llama-derived VHH
B22: M0745 (VHH)
VHH: EVQLVESGGGLVQAGGSLRLSCAVSGRRVSIYGMGWYRLAPGKQREMVASITSGGITTYADSVKGRFSISRDNAKNTVYLQMNSLKPEDTAVYYCNYHDYRVQGESWGQGTQVTVSS
notes: Llama-derived VHH
B23: M0752 (VHH)
VHH: EVQLVESGGGLVQPGGSLRLSCAASGFTFSNYGMSWVRQAPGKGLEWVSSIGSGGRITTYLDSVKGRFTISRDNAKNTLYLQMNSLKSEDTAVYYCESGGYRGQGTQVTVSS
notes: Llama-derived VHH
B24: M0741 (VHH)
VHH: EVQLVESGGGAVQAGGSQRLSCTVSGRPFTKYAMGWFRQPPEKEREFVATSTWEGSTYYADSVKGRFTISRDNANNIIDLQMNTLKPEDTAVYFCAASNTYNADTTYYAKSTAFNFWGQGTQVTVSS
notes: Llama-derived VHH
B25: M0744 (VHH)
VHH: EVQLVESGGGLVQPGGSLRLSCAASGSIFSINDMDWYRQAPGKQRELVAAITRGGSTNYADSVKGRFTISRDNAKNTVYLQMNSLKPEDTAVYYCNAEVSTETTGWRTWRDYWGQGTQVTVSS
notes: Llama-derived VHH

Experiments:
[1] = target: T1, HLA-A2/MAGE-A4 complex, recombinant (HLA-A*02:01 extracellular domain, human b2m, MAGE-A4 peptide 230-239 …) (human, UniProt P04439 25-299 at identity 0.94); P61769 21-119); assay: phage display biopanning and screening
T1 construct: also called MAGE-A4 pMHC; MAGE-A4/HLA-A2 complex

[2] = target: T1, HLA-A2/MAGE-A4 complex, recombinant …; assay: direct ELISA, plate coated with HLA-A2/MAGE-A4 complex, serial dilution of the antibody
Protocol: All available hits were evaluated for their ability to bind MAGE-A4/HLA-A2 complex and a control peptide/HLA-A2 complex in a direct binding ELISA assay. […] Briefly, 96 well ELISA plates were coated with purified human MAGE-A4/HLA-A2 complex or control HLA-A2 complex. Serial dilutions of antibody molecules were added to the plate and detected by an anti-kappa light chain-HRP (Invitrogen) or a purified rabbit anti-VHH (QVQ) followed by goat anti-rabbit IgG(H+L) HRP (Southern Biotech). […] 5B.

Binder	binding result [1]	further results
B1	binds	–
B2	binds	–
B3	binds	–
B4	binds	–
B5	binds	–
B6	binds	–
B7	binds	–
B8	binds	–
B9	–	binding result [2]: binds
B10	binds	–
B11	binds	–
B12	binds	–
B13	–	binding result [2]: binds
B14	–	binding result [2]: binds
B15	–	binding result [2]: binds
B16	–	binding result [2]: binds
B17	binds	–
B18	binds	–
B19	–	EC50 (read off the curve) [2]: ~0.6 nM
B20	–	binding result [2]: binds
B21	binds	–
B22	binds	–
B23	binds	–
B24	binds	–
B25	binds	–
